According to article PMC5052520, “The Important Role of Halogen Bond in Substrate Selectivity of Enzymatic Catalysis” (Scientific Reports, 2016):

Tests used:
Assay in all cases: hydrolysis kinetics, product by liquid chromatography
Format in all cases: biochemical, Synechocystis sp. PCC 6803
N#CCc1cccc(Cl)c1 = test system: N#CCc1cccc(Cl)c1
From the text: (§1) hydrolysis kinetics, product by liquid chromatography on nitrilase (WT)

N#CCc1ccccc1Cl = test system: N#CCc1ccccc1Cl
From the text: as §1

N#CCc1ccc(Cl)cc1 = test system: N#CCc1ccc(Cl)cc1
From the text: as §1

| Substance | Km (N#CCc1cccc(Cl)c1) [µM] | kcat (N#CCc1cccc(Cl)c1) [s⁻¹] | kcat/Km (N#CCc1cccc(Cl)c1) [M⁻¹ s⁻¹] | Km (N#CCc1ccccc1Cl) [µM] | kcat (N#CCc1ccccc1Cl) [s⁻¹] | kcat/Km (N#CCc1ccccc1Cl) [M⁻¹ s⁻¹] | Km (N#CCc1ccc(Cl)cc1) [µM] | kcat (N#CCc1ccc(Cl)cc1) [s⁻¹] | kcat/Km (N#CCc1ccc(Cl)cc1) [M⁻¹ s⁻¹] |
| --- | --- | --- | --- | --- | --- | --- | --- | --- | --- |
| nitrilase (WT) (Synechocystis sp. PCC 6803 substr. Kazusa) | 460 ± 40 | 0.27 ± 0.02 | 590 | – | – | – | – | – | – |
| nitrilase (WT) (Synechocystis sp. PCC 6803 substr. Kazusa; H141W) | – | – | – | 650 ± 180 | 0.21 ± 0.05 | 330 | – | – | – |
| nitrilase (WT) (Synechocystis sp. PCC 6803 substr. Kazusa; T54Y) | 9600 ± 270 | 0.08 ± 0.13 | 10 | – | – | – | 710 ± 30 | 0.56 ± 0.07 | 560 |
